These results are taken from patent US6855873.

The target in assay [1] is ICP receptor sites on brush border membrane vesicles of the Bt18 selected Manduca sexta strain (Manduca sexta). The assay is described as follows: cell-based or functional assay.
The target of assay [2] is ICP receptor sites on brush border membrane vesicles of Manduca sexta (reference, non-selected strain) (Manduca sexta). Nature of the assay: cell-based or functional assay.
For assay [3], the target named is ICP receptor sites on brush border membrane vesicles of the Bt2 selected Manduca sexta strain (Manduca sexta). Nature of the assay: cell-based or functional assay.
Assay [4] has as its target ICP receptor sites on brush border membrane vesicles of Manduca sexta (reference, non-selected strain) (Manduca sexta). Nature of the assay: 125I-toxin competition binding on BBMV, filtration, LIGAND analysis.
The target in assay [5] is ICP receptor sites on brush border membrane vesicles of Heliothis virescens (Heliothis virescens). Described as above.
For assay [6], the target named is ICP receptor sites on brush border membrane vesicles of the Bt2/Bt18 selected Manduca sexta strain (Manduca sexta).
In assay [7] the target is ICP receptor sites on brush border membrane vesicles of Manduca sexta (reference, non-selected strain) (Manduca sexta).
Assay [8] concerns the target ICP receptor sites on brush border membrane vesicles of Heliothis virescens (Heliothis virescens).
In assay [9] the target is ICP receptor sites on brush border membrane vesicles of the sensitive Plutella xylostella strain PxS (Plutella xylostella). The assay is described as follows: 125I-toxin binding on P. xylostella BBMV.
The target of assay [10] is ICP receptor sites on brush border membrane vesicles of the Bt18 selected Manduca sexta strain (Manduca sexta).
The target of assay [11] is ICP receptor sites on brush border membrane vesicles of Pieris brassicae (Pieris brassicae). The assay is described as follows: 125I-toxin competition binding on P. brassicae BBMV, LIGAND analysis.
For assay [12], the target named is ICP receptor sites on brush border membrane vesicles of the Dipel-resistant Plutella xylostella strain PxR (Plutella xylostella). Nature of the assay: cell-based or functional assay. More on the design: unit not given beside the values.
Assay [13] deals with ICP receptor sites on brush border membrane vesicles of the sensitive Plutella xylostella strain PxS (Plutella xylostella). Nature of the assay: cell-based or functional assay. More on the design: unit not given beside the values.
Assay [14] deals with ICP receptor sites on brush border membrane vesicles of Manduca sexta (reference, non-selected strain) (Manduca sexta). The source holds these as a separate data set.
Assay [15] has the same target. The source holds these as a separate data set.
The target of assay [16] is ICP receptor sites on brush border membrane vesicles of the Dipel-resistant Plutella xylostella strain PxR (Plutella xylostella). Nature of the assay: 125I-toxin binding on P. xylostella BBMV.
The target in assay [17] is ICP receptor sites on brush border membrane vesicles of Manduca sexta (reference, non-selected strain) (Manduca sexta). The source holds these as a separate data set.

The pKd is the Kd on a negative log10 scale, so that one unit is a factor of ten.

pKd: −log10 of the molar value. “And” between values parts separate entries of the source, which are not always exact repeats. Equal values may be shown once. Read-outs that look alike come from different tables or passages of the source. Some results are limits rather than exact numbers.

Bt14 toxin, sequence (P0A374 30-647 limits assumed): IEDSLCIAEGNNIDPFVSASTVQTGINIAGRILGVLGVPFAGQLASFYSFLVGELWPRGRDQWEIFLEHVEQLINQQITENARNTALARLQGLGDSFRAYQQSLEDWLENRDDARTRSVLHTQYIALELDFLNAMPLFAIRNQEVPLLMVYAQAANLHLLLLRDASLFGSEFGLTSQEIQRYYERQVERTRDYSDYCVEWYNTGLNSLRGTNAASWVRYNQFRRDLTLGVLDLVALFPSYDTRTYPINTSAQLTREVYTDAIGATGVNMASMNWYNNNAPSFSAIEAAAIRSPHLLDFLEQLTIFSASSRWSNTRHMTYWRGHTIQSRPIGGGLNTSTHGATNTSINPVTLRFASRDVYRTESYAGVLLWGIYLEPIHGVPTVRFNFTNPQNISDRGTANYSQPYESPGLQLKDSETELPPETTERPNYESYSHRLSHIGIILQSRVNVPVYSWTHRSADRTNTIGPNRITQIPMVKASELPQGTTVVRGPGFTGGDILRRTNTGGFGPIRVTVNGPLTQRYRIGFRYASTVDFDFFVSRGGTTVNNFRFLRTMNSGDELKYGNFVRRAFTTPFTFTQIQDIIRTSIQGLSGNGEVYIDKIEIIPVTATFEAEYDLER
Bt3 toxin, sequence (P0A366 29-618 limits assumed): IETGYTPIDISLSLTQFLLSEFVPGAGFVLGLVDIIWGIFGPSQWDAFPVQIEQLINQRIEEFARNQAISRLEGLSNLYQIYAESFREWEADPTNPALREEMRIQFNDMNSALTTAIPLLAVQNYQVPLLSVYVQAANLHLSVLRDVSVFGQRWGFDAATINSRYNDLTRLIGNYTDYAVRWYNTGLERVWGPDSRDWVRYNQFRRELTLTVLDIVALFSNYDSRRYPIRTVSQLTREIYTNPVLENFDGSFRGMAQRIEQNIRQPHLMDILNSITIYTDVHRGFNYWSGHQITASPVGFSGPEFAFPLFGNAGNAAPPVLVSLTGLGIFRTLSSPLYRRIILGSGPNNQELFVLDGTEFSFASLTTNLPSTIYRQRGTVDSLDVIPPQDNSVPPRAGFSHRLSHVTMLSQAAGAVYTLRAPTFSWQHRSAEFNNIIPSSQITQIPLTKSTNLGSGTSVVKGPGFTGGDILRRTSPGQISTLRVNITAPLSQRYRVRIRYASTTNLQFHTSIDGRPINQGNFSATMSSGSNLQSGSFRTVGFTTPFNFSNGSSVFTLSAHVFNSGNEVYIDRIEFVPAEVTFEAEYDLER

Consider “Bt2 toxin (from UniProt P0A370 29-607) (ligand)”, for which the figures for the LC50 (Bt2 sensitivity) in assay [1] and in assay [2] were 4 ng/cm^2 and 20 ng/cm^2, respectively. In [3], the LC50 of the 20th generation amounted to 6400 µg/g. Also, the negative logarithm of the Kd (pKd) in assay [4] is 9.40; in assay [5], 9.22; in assay [6] it was 9.40; in [9], 8.09; in [10] it was 9.40; in [11] it was 8.55. The Rt (binding site concentration) (pmol/mg vesicle protein) in assay [4] was found to be 3.4; in assay [5], 9.7; in [6], 3.4; in [11], 12.9. Further, the amount bound with labeled toxin alone (cpm) came to 1820 cpm in assay [7] and 1780 cpm in assay [8]. The substance also returned a Rt (binding site concentration) (pmol/mg protein) in [9] of 1.6. The substance also yielded a Rt (binding site concentration) (pmoles/mg vesicle protein) in assay [10] of 20.8. The LC50 (larval mortality, artificial diet) (ng protein per cm^2 of artificial diet) in assay [12] is more than 1350; in assay [13], 6.7.
Turning to “Bt3 toxin (from UniProt P0A366 29-618) (ligand)”, the negative-log Kd (pKd) in assay [4] was 8.82; in [5], 8.92. Also, the Rt (binding site concentration) (pmol/mg vesicle protein) in [4] is 9.8; in [5], 3.7. Moreover, the amount bound with labeled toxin alone (cpm) was determined as 601 cpm in [7] and 472 cpm in assay [8].
On to “Bt14 toxin (from UniProt P0A374 30-647) (ligand)”, for which, in assay [11], the negative logarithm of the Kd (pKd) is 8.08 and the Rt (binding site concentration) (pmol/mg vesicle protein) amounted to 21.4.
As to “Bt15 toxin (from UniProt P0A376 28-627) (ligand)”, the Rt2 (binding site concentration) (pmol/mg vesicle protein) in [14] came to 6.7. For the same substance, the negative logarithm of the Kd (pKd) is 9.52 and 8.54 in [15]; 8.43 in [16]; 8.72 in assay [9]. In addition, the Rt (binding site concentration) (pmol/mg protein) worked out at 5.8 in [16] and 4.2 in assay [9]. Also, the Rt1 (binding site concentration) (pmol/mg vesicle protein) in assay [17] worked out at 5.9. For the same substance, the LC50 (larval mortality, artificial diet) (ng protein per cm^2 of artificial diet) in assay [12] amounted to 120; in assay [13], 133.
“Bt73 toxin (from UniProt P05068 29-623) (ligand)”: the pKd in [4] was 9.22; in assay [5], 9.10. Moreover, the Rt (binding site concentration) (pmol/mg vesicle protein) is 4 in [4] and 19.5 in [5]. For the same substance, the amount bound with labeled toxin alone (cpm) in assay [7] amounted to 2380 cpm; in assay [8], 6610 cpm.
